From US20220056425, “RNA PO[…] FOR […] OF MODIFIED RNA” (GUARDIAN THERAPEUTICS, LLC, published 2022)

B1: W2.S1.1_R6P-1 (ssRNA)
RNA: GGGAGAGCAUUGCUCGUUAGUGGAGCCUAUGGUUGUUGUGUGCUCCUCGCGGGAGCUAGUGACUCGGAUCAUCUAGG
modifications: 2'-OMe at all nucleotides
B2: W2.S1.1_R6F-1 (ssRNA)
RNA: GGGAGAGCAUUGCUCGUUAGUGGCGUUACAGCAGUUGCCACAAGGCACGUUUUAGCUAGUGACUCGGAUCAUCUAGG
modifications: 2'-OMe at all nucleotides
B3: CT aptamer clone 1 (ssRNA)
RNA: GGGAGAGCAUUGCUCGUUAGUGUCGUCUCGGAGUUUAUCUCCGUGGUCGUUGAAGCUAGUGACUCGGAUCAUCUAGG
B4: CT aptamer clone 6 (ssRNA)
RNA: GGGAGAGCAUUGCUCGUUAGUGUCGUCUCGAAUCGAACUUUCGUGGUCGUUAAAGCUAGUGACUCGGAUCAUCUAGG
B5: CT aptamer clone 11 (ssRNA)
RNA: GGGAGAGCAUUGCUCGUUAGUGUCGUCUCAUCGAAUGGUCGGUGUGGUCGUUAAGCUAGUGACUCGGAUCAUCUAGG
B6: CT aptamer clone 8 (ssRNA)
RNA: GGGAGAGCAUUGCUCGUUAGUGUCGUCUAAUCGGUUUUCCGGUUUGGUCGUUGAGCUAGUGACUCGGAUCAUCUAGG
B7: CT aptamer clone 5 (ssRNA)
RNA: GGGAGAGCAUUGCUCGUUAGUGUCGUCUCGCGAACGUUAAUCGCGUGGUCGUGAGCUAGUGACUCGGAUCAUCUAGG
B8: CT aptamer clone 7 (ssRNA)
RNA: GGGAGAGCAUUGCUCGUUAGUGUCGUCUUGACCUUUGCUGGUCAUGGUCGUAAAGCUAGUGACUCGGAUCAUCUAGG
B9: CT aptamer clone 2 (ssRNA)
RNA: GGGAGAGCAUUGCUCGUUAGUGUCGUCUUGGUAAUUCCCUUUCUGGUCGUUUAAGCUAGUGACUCGGAUCAUCUAGG
B10: CT aptamer clone 9 (ssRNA)
RNA: GGGAGAGCAUUGCUCGUUAGUGUCGUCUCGGGAUUUUUCCCGUGGUCGUUCAUAGCUAGUGACUCGGAUCAUCUAGG
B11: CT aptamer clone 10 (ssRNA)
RNA: GGGAGAGCAUUGCUCGUUAGUGUCGUCUCGAGUUGUGAUUACUCGUGGUCGUAAGCUAGUGACUCGGAUCAUCUAGG
B12: CT aptamer clone 3 (ssRNA)
RNA: GGGAGAGCAUUGCUCGUUAGUGUCGUCUUAAACUUCGUGUUUUUGGUCGUUGUAGCUAGUGACUCGGAUCAUCUAGG
B13: CT aptamer clone 4 (ssRNA)
RNA: GGGAGAGCAUUGCUCGUUAGUGUCGUCUUCAAUCAUGCAUUGUUGGUCGUUGAAGCUAGUGACUCGGAUCAUCUAGG

The binders below were run against KRAS (UniProt P01116 P01116:1-189) (assay: plate binding compared to BSA; only central region printed).

Question: Does B1 bind?
Answer: binds

Question: Does B2 bind?
Answer: binds

The binders below were run against Cholera toxin (holotoxin and/or B subunit) (UniProt P01555;P01555;P01556 P01555:19-212,P01555:213-258,P01556:22-124) (assay: not given).

Question: Does B3 bind?
Answer: binds

Question: Does B4 bind?
Answer: binds

Question: Does B5 bind?
Answer: binds

Question: Does B6 bind?
Answer: binds

Question: Does B7 bind?
Answer: binds

Question: Does B8 bind?
Answer: binds

Question: Does B9 bind?
Answer: binds

Question: Does B10 bind?
Answer: binds

Question: Does B11 bind?
Answer: binds

Question: Does B12 bind?
Answer: binds

Question: Does B13 bind?
Answer: binds
